The values below come from patent US20060088524A1 (BOARD OF TRUSTEES OF THE UNIVERSITY OF ILLINOIS, published 2006).

The target of data set [1] is TF:VIIa complex (1:1 complex of rTF and factor VIIa on a phospholipid surface) (UniProt P08709).
Data set [2] concerns the target T1, recombinant human tissue factor (rTF), membrane-anchored, HPC4-tagged, cytoplasmic domain truncated.
T1 chain: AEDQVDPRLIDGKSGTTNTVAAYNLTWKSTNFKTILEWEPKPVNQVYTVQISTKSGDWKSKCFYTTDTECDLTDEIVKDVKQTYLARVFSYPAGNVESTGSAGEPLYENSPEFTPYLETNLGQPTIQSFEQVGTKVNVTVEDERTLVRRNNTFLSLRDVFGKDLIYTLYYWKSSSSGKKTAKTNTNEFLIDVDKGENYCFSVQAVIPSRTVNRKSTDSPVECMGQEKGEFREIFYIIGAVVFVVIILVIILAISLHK

With coagulation factor X, in data set [1], the Km for factor X activation; TF-Nanodiscs, 10% PS, 90% PC was 0.132 µM; the Km for factor X activation; TF-Nanodiscs, 20% PS, 80% PC worked out at 0.0686 µM; the Km for factor X activation; TF-Nanodiscs, 30% PS, 70% PC is 0.0452 µM; the Km for factor X activation; TF-liposomes, 20% PS, 80% PC was 0.0202 µM. In data set [1], the Km, app for factor X activation; rTF in PCPS vesicles was 0.0202 µM and the Km, app for factor X activation; rTF-PCPS-nanoscale discs came out at 0.0686 µM.

B1: coagulation factor VIIa (protein)
chain: ANAFLEELRPGSLERECKEEQCSFEEAREIFKDAERTKLFWISYSDGDQCASSPCQNGGSCKDQLQSYICFCLPAFEGRNCETHKDDQLICVNENGGCEQYCSDHTGTKRSCRCHEGYSLLADGVSCTPTVEYPCGKIPILEKRNASKPQGRIVGGKVCPKGECPWQVLLLVNGAQLCGGTLINTIWVVSAAHCFDKIKNWRNLIAVLGEHDLSEHDGDEQSRRVAQVIIPSTYVPGTTNHDIALLRLHQPVVLTDHVVPLCLPERTFSERTLAFVRFSLVSGWGQLLDRGATALELMVLNVPRLMTQDCLQQSRKVGDSPNITEYMFCAGYSDGSKDSCKGDSGGPHATHYRGTWYLTGIVSWGQGCATVGHFGVYTRVSQYIEWLQKLMRSEPRPGVLLRAPFP
On to B1, for which the “procoagulant activity (plasma clotting) of TF-containing nanoscale discs” value in data set [2] was “the resultant discs exhibit strong procoagulant activity”.
